Consider 21 molecules from US20220064276A1.

Assay [1] concerns the target LTBP-proTGFβ1 in the LN229 CAGA12 assay of Table 20 (endogenous or over-expressed murine LTBP1 not stated). Briefly: cell-based or functional assay.
Assay [2] has as its target human LRRC33-proTGFβ1 complex (human) (UniProt Q86YC3). Briefly: Octet, antibody immobilized. On the technique in general: Biolayer interferometry detects binding as a change in optical thickness at a sensor tip.

Where a chain is given by its changes, count along the chain named.

Sequence of human LRRC33-proTGFβ1 complex (human) (Q86YC3 19-650 limits assumed, chain 1 of 2): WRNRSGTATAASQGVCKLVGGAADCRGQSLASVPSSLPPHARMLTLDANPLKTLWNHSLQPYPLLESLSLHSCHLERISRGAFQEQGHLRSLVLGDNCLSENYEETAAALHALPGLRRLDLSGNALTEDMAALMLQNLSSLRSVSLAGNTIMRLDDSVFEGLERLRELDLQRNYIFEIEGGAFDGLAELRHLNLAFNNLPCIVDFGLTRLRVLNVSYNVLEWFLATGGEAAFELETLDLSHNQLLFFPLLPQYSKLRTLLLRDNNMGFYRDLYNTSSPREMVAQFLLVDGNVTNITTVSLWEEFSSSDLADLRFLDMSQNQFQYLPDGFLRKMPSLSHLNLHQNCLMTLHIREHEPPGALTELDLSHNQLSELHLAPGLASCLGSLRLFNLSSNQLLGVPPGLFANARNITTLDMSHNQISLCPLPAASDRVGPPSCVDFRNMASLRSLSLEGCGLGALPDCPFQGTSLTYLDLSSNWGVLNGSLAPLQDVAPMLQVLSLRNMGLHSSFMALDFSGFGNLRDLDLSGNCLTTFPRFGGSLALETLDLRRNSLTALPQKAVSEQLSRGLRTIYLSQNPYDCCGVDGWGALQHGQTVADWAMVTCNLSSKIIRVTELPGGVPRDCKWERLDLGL
Sequence of human LRRC33-proTGFβ1 complex (human) (chain, as listed by the source limits assumed, chain 2 of 2): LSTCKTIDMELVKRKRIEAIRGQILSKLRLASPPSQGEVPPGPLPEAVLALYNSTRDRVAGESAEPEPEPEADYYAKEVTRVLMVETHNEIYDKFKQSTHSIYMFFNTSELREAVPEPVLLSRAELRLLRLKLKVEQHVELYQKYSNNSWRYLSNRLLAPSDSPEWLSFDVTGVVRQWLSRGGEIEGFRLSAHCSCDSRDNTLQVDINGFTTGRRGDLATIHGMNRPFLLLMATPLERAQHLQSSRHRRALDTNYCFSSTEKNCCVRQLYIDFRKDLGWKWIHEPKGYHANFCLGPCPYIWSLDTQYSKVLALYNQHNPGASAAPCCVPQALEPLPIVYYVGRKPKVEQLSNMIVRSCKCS

B1: SR-AB47-HuFab (Fab, V domains shown)
VH: QVQLVESGGGVVQPGRSLRLSCAASGFTFRSYVMHWVRQAPGKGLEWVAVISHEGSGKYYADSVKGRFTISRDNSKNTLYLQMNSLRAEDTAVYYCARPRIAARRGGFGSWGQGTLVTVSS
VL: NFMLTQPHSVSESPGKTVTISCTRSSGNIDYNYVQWYQQRPGSSPTTVIYEDNVRPSGVPDRFSGSIDSSSNSASLTISGLKTEDEADYYCQSYDYDNQAVVFGGGTKLTVL
In assay [1], B1 returned an IC50 (CAGA12 luciferase) of 0.186 nM.

B2: SR-AB55-HuFab (Fab, V domains shown)
VH: B1 VH with R98L
VL: B1 VL
Regarding B2, the IC50 (CAGA12 luciferase) in assay [1] was found to be 0.536 nM.

B3: SR-AB58-HuFab (Fab, V domains shown)
VH: B1 VH with R98L, S110T
VL: B1 VL with Y96S, A100R
Consider B3, for which, in assay [1], the IC50 (CAGA12 luciferase) is 4.86 nM.

B4: SR-AB57-HuFab (Fab, V domains shown)
VH: B1 VH with R98L
VL: B1 VL with S93G, Y96W, N98T, A100G
On to B4, for which, in assay [1], the IC50 (CAGA12 luciferase) stood at 0.775 nM.

B5: SR-AB43-HuFab (Fab, V domains shown)
VH: B1 VH with G57L, S110Y
VL: B1 VL with Y96S, A100R
In assay [1], B5 returned an IC50 (CAGA12 luciferase) of 1.08 nM.

B6: SR-AB41 Fab (Fab, V domains shown)
VH: B1 VH with G57L, S110Y
VL: B1 VL with Y31N, V54Q
B6 had an IC50 (CAGA12 luciferase) in assay [1] of 0.486 nM.

B7: SR-AB42-HuFab (Fab, V domains shown)
VH: B1 VH with G57L, S110Y
VL: B1 VL with Y31N, V54Q, N98T, A100G
Consider B7, for which the IC50 (CAGA12 luciferase) in assay [1] was 0.667 nM.

B8: SR-AB23 Fab (Fab, V domains shown)
VH: B1 VH with G57L, S110Y
VL: B1 VL with Y31N, V54Q, Y96S, A100G
B8 gave an IC50 (CAGA12 luciferase) in assay [1] of 8.53 nM.

B9: SR-AB49-HuFab (Fab, V domains shown)
VH: B1 VH
VL: B1 VL with S93G, Y96W, N98T, A100G
As to B9, the IC50 (CAGA12 luciferase) in assay [1] is 1.02 nM.

B10: SR-AB61-HuFab (Fab, V domains shown)
VH: B1 VH with R98L, S110T
VL: B1 VL with S93G, Y96W, N98T, A100G
The molecule B10 returned an IC50 (CAGA12 luciferase) in assay [1] of 0.47 nM.

B11: SR-AB54-HuFab (Fab, V domains shown)
VH: B1 VH with R98L
VL: B1 VL with Y96S, A100R
As to B11, in assay [1], the IC50 (CAGA12 luciferase) was determined as 5.87 nM.

B12: SR-AB53-HuFab (Fab, V domains shown)
VH: B1 VH with S110T
VL: B1 VL with S93G, Y96W, N98T, A100G
On to B12, for which the IC50 (CAGA12 luciferase) in assay [1] stood at 1.18 nM.

B13: SR-AB48-HuFab (Fab, V domains shown)
VH: B1 VH
VL: B1 VL with N98T, A100G
The molecule B13 gave an IC50 (CAGA12 luciferase) in assay [1] of 0.523 nM.

B14: SR-AB56-HuFab (Fab, V domains shown)
VH: B1 VH with R98L
VL: B1 VL with N98T, A100G
With B14, the IC50 (CAGA12 luciferase) in assay [1] was 0.439 nM.

B15: SR-AB60-HuFab (Fab, V domains shown)
VH: B1 VH with R98L, S110T
VL: B1 VL with N98T, A100G
Turning to B15, the IC50 (CAGA12 luciferase) in assay [1] was found to be 0.742 nM.

B16: SR-AB59-HuFab (Fab, V domains shown)
VH: B1 VH with R98L, S110T
VL: B1 VL
In assay [1], B16 returned an IC50 (CAGA12 luciferase) of 0.195 nM.

B17: SR-AB46-HuFab (Fab, V domains shown)
VH: B1 VH
VL: B1 VL with Y96S, A100R
On to B17, for which the IC50 (CAGA12 luciferase) in assay [1] was 0.495 nM.

B18: SR-AB22 (antibody, IgG1, V domains shown)
VH: B1 VH with G57L, R98V, S110Y
VL: B1 VL with Y31N, V54Q, Y96S, A100G
Turning to B18, in assay [2], the Response (nm) was 0.133 nm.

B19: SR-AB51-HuFab (Fab, V domains shown)
VH: B1 VH with S110T
VL: B1 VL
In the case of B19, the IC50 (CAGA12 luciferase) in assay [1] is 0.535 nM.

B20: SR-AB52-HuFab (Fab, V domains shown)
VH: B1 VH with S110T
VL: B1 VL with N98T, A100G
For B20, the IC50 (CAGA12 luciferase) in assay [1] was 0.459 nM.

B21: SR-AB50-HuFab (Fab, V domains shown)
VH: B1 VH with S110T
VL: B1 VL with Y96S, A100R
With B21, the IC50 (CAGA12 luciferase) in assay [1] was found to be 11 nM.
